Results published in paper PMC7691508 (Nature Communications, 2020).

Columns and labels:
[1] = molecular target: T1, IFN regulatory factor 3 (IRF3) (mouse (endogenous in peritoneal macrophages, RAW264.7, L929, MEFs)), P70671; assay: native gel or EMSA; details: remark: other sources report otherwise
T1 chain: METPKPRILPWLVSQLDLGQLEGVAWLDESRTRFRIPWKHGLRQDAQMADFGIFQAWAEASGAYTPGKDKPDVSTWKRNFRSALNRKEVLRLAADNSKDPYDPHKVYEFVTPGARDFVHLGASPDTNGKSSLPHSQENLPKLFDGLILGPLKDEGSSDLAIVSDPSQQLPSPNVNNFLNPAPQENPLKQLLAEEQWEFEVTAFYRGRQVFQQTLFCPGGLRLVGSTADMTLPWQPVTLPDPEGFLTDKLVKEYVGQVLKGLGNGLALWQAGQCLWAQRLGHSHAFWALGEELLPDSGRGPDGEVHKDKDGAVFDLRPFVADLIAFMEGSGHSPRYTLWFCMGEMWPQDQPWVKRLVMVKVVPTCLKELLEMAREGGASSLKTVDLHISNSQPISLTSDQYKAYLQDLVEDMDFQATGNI

native gel or EMSA = molecular target: the molecule itself; assay: native gel or EMSA

B1: IFN regulatory factor 3 (IRF3), P70671 1-419 (natural protein)
chain: T1 chain
With B1 as the binder, how does the stoichiometry N [1] read?
Its stoichiometry N is 2.

B2: stimulator of interferon genes (STING) (natural protein)
chain: MPYSNLHPAIPRPRGHRSKYVALIFLVASLMILWVAKDPPNHTLKYLALHLASHELGLLLKNLCCLAEELCHVQSRYQGSYWKAVRACLGCPIHCMAMILLSSYFYFLQNTADIYLSWMFGLLVLYKSLSMLLGLQSLTPAEVSAVCEEKKLNVAHGLAWSYYIGYLRLILPGLQARIRMFNQLHNNMLSGAGSRRLYILFPLDCGVPDNLSVVDPNIRFRDMLPQQNIDRAGIKNRVYSNSVYEILENGQPAGVCILEYATPLQTLFAMSQDAKAGFSREDRLEQAKLFCRTLEEILEDVPESRNNCRLIVYQEPTDGNSFSLSQEVLRHIRQEEKEEVTMNAPMTSVAPPPSVLSQEPRLLISGMDQPLPLRTDLI
Which “stoichiometry N” value (native gel or EMSA) does the source give for B2 here?
Its value is 2.
